Patent US20220259593A1, “CONTROL OF MAMMALIAN GENE DOSAGE USING CRISPR” (The Regents of the University of California, priority 2019, published 2022)

test system: K562 CRISPRi cells; test: Constant region variant library pooled growth screen, K562; format: cell-based, human; conditions: sgRNA constant region variants; activity relative to the original, un-modified constant region cr995
Outline: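 Pooled library transduced into K562 CRISPRi cells in duplicate, puromycin-selected, grown at >2000× coverage and sampled after 4 to 8 days. Phenotypes per targeting sequence:constant region pair were normalized to the unmodified-scaffold pairing to give relative activity.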

Molecule	Mean relative activity
cr487 (nucleic acid, listed as DNA, chemistry not fully specified) guide: GTTTAAGAGCTAAGCTGGAAACAGCATAGCACGTTTAAATAAGGCTAGTCCGTTATCAACTTGAAAAAGTGGCACCGAGTCGGTGCT	1.039
cr832 (nucleic acid, listed as DNA, chemistry not fully specified) guide: GTTTAAGAGCTAAGCTGGAAACAGCATAGCAAGTTTAAATAAGGCTAGTCCGTTATCAGCTTGAAAAAGCGGTGCCGAGTCGGCACT	1.039

same assay, conditions: sgRNA constant region variants; activity relative to the unmodified constant region cr995

Molecule	Mean relative activity
cr025 (nucleic acid, listed as DNA, chemistry not fully specified) guide: CTTTAAAAGCTAAGCTGGAAACAGCATAGCAAGTTTAAATAAGGCTAGTCCGTTATCAACTTGAAAAAGTGGCACCGAGTCGGTGCT	0.2396
cr812 (nucleic acid, listed as DNA, chemistry not fully specified) guide: GTTTAAGAGCTAAGCTGGAAACAGCATAGCAAGTTTAAATAAGGCTACTCCGTTATCAACTTGAAAAAGTGGCACCGAGTCGGTGCT	0.1766
cr218 (nucleic acid, listed as DNA, chemistry not fully specified) guide: GTTTAAGAGCTAAGCTGGAAACAGCATAGCAATTTTAAATAAGGCTAGTCCGTTATCAACTTAAACAAGTGGCACCGAGTCGGTGCT	0.207
cr853 (nucleic acid, listed as DNA, chemistry not fully specified) guide: GTTTAAGAGCTAAGCTGGAAACAGCATAGCAATTTTAAATAAGGCGAGTCCGTTATCAACTTGAAAAAGTGGCACCGAGTCGGTGCT	0.2121
cr308 (nucleic acid, listed as DNA, chemistry not fully specified) guide: GTTTAAGAGCTAAGCTGGAAACAGCATAGCAAGTTTAAATAAAGCTAGTCTGTTATCATCTTGAAAAAGAGGCTCCGAGTCGGAGCT	0.2249
cr294 (nucleic acid, listed as DNA, chemistry not fully specified) guide: GTTTAAGAGCTAAGCTGGAAACAGCATAGCAAGTTTAAATAAGAATATTTCGTTATCAACTTGAAAAAGTGGCACCGAGTCGGTGCT	0.1883
cr403 (nucleic acid, listed as DNA, chemistry not fully specified) guide: GTTTAAGAGCTAAGCTGGAAACAGCATAGCAAGCTTAAATAAGGCTAGTCCGTTATCAACTTGAAAAAGTGGCACAGAGTCTGTGCT	0.2381
cr194 (nucleic acid, listed as DNA, chemistry not fully specified) guide: GTTTAAGAGCTAAGCTGGAAACAGCATAGCAAGTTTAAATAAGGCTAGTACGTTATCAACTTGAAAAAGTGGCACCGAGTCGGTGCT	0.2113
cr854 (nucleic acid, listed as DNA, chemistry not fully specified) guide: GTTTAAGAGCTAAGCTGGAAACAGCATAGCAAGTTTAAATAAGGCTAGTCCGTTATCAACTTGAAAAAGTGGCAGGGAGTCCCTGCT	0.2099
cr900 (nucleic acid, listed as DNA, chemistry not fully specified) guide: GTTTAAGAGCTAAGCTGGAAACAGCATAGCAAGTTGAAATAAGGCTAGTCCGTTATCAACTTGAAAAAGTGGCACCGAGTCGGTGCT	0.1846
cr180 (nucleic acid, listed as DNA, chemistry not fully specified) guide: GTTTAAGAGCTAAGCTGGAAACAGCATAGCAAGTTTAAATCAGGCTAGTCCGTTATCAACTTGAAAAAGTGGCACCGAGCCGGTGCT	0.208
cr979 (nucleic acid, listed as DNA, chemistry not fully specified) guide: GTTTAAGAGCTAAGCTGGAAACAGCATAGCAAGTTTAAATAAGGCTAGTCCGGTATCTACTTGAAAAAGTGGCACCGAGTCGGTGCT	0.1765
cr760 (nucleic acid, listed as DNA, chemistry not fully specified) guide: GTTTAAGAGCTAAGCTGGAAACAGCATAGCAGGTTTAAATCAGGCTAGTCCGTTATCAACTTGATAAAGTGGCACCGAGTCGGTGCT	0.1909
cr185 (nucleic acid, listed as DNA, chemistry not fully specified) guide: GTTTAAGAGCTAAGCTGGAAACAGCATAGCAAGTTTAAATAAGGCTAGTCCGTTATCAACTTGAAAAAGTGGCACCGAGTAGGTGCT	0.1755
cr262 (nucleic acid, listed as DNA, chemistry not fully specified) guide: GTTTAAGAGCTAAGCTGGAAACAGCATAGCAAGCTTAAATAAGGCTAGTCCGTTATCATCTTGAAAAAGAGGCACCGAGTCGGTGCT	0.2329
cr207 (nucleic acid, listed as DNA, chemistry not fully specified) guide: GTTTAAGAGCTAAGCTGGAAACAGCATAGCAAGTTTAAATAAGGCTAGTCCGTTATCAACTTGAAAAAGTGGCACCGAGTGGGTGCT	0.2154
cr198 (nucleic acid, listed as DNA, chemistry not fully specified) guide: GTTTAAGAGCTAAGCTGGAAACAGCATAGCAATTTTAAATAAGGCTAGTCCGTTATCAACTTGAAAAAGTGGCACCGAATCGGTGCT	0.236
cr732 (nucleic acid, listed as DNA, chemistry not fully specified) guide: GTTTAAGAGCTAAGCTGGAAACAGCATAGCAAGTTTAAATAGGGCTAGTCCGGTATCAACTTGAAAAAGTCGCACCGAGTCGGTGCT	0.1926
cr605 (nucleic acid, listed as DNA, chemistry not fully specified) guide: GTTTAAGAGCTAAGCTGGAAACAGCATAGCAAGTTTAAATAAGGATATTCCGTTATCAACTTGAAAAAGTGGCACCCAGTGGGTGCT	0.1839
cr347 (nucleic acid, listed as DNA, chemistry not fully specified) guide: GTTTAAGAGCTAAGCTGGAAACAGCATAGCAAGCTTAAATAAGCCTAGTGCGTTATCAACTTGAAAAAGTGGCACCGAGTCGGTGCT	0.1915
cr011 (nucleic acid, listed as DNA, chemistry not fully specified) guide: GTTCAAGAGCTAAGCTGGAAACAGCATAGCAAGTTTAAATAAGGCTAGTCCGTTATCAACTTGAAAAAGTGGCACCGAGTCGGTGCT	0.2088
cr220 (nucleic acid, listed as DNA, chemistry not fully specified) guide: GTTTAAGAGCTAAGCTGGAAACAGCATAGCAAGTTTAAATCAGGCTAGTCCATAATCAACTTGAAAAAGTGGCACCGAGTCGGTGCT	0.2229
cr090 (nucleic acid, listed as DNA, chemistry not fully specified) guide: GTTTTATAGCTAAGCTGGAAACAGCATAGCAAGTTTAAATAAGGCTAGTCCGTTATCAACTTGAAAAAGTGGCACCGAGTCGGTGCT	0.1865
cr276 (nucleic acid, listed as DNA, chemistry not fully specified) guide: GTTTAAGAGCTAAGCTGGAAACAGCATAGCAAGTTTAAATAAGGATATTCCGTTATCAGCTTGAAAAAGCGGCACCCAGTGGGTGCT	0.2143
cr373 (nucleic acid, listed as DNA, chemistry not fully specified) guide: GTTTAAGAGCTAAGCTGGAAACAGCATAGCAAGCTTAAATAAGGCTAGTCCGTTATCAACTTGAAAAAGTGGCAGCGAGTCGCTGCT	0.1993
cr429 (nucleic acid, listed as DNA, chemistry not fully specified) guide: GTTTAAGAGCTAAGCTGGAAACAGCATAGCAAGTTTAAATAAGAATATTTCGTTATCAACTTGAAAAAGTGGCAACGAGTCGTTGCT	0.196
cr452 (nucleic acid, listed as DNA, chemistry not fully specified) guide: GTTTAAGAGCTAAGCTGGAAACAGCATAGCAAATTTAAATAAGGCTAGTCCGTTATAAACTTGAAAAAGTGGCACCGAGTCGGTGCT	0.1813
cr311 (nucleic acid, listed as DNA, chemistry not fully specified) guide: GTTTAAGAGCTAAGCTGGAAACAGCATAGCAAGTTTAAATAAGGCTTGTCCGTTATATACTTGAAAAAGTGGCACCGAGTCGGTGCT	0.179
